Test results: US20220073643A1 (NANJING GENSCRIPT BIOTECH, published 2022)
Read-outs that look alike come from different tables or passages of the source.

B1: chimeric 185F2G12 (antibody, human IgG1, kappa, V domains shown)
VH: QAYLQQSGAELVRSGASVKMSCKASGYTFTSYNMHWVRQTPGQGLEWIGYIYPGNGGTNYSQKFKGKASLTADTSSTTAYMQISSLTSEDSAVYFCATGRGFAYWGQGTLVTVSA
VL: DIVMTQSPSSLTVTAGEKVTLSCKSSQSLFNTGNQKNYLTWYQQKPGQPPKLLIFRASTRESGVPDRFTGSGFGTDFTLTISSVQAEDLAVYYCQNDFSYPLTFGAGTKLELKR
notes: chimeric, human IgG1/kappa constant regions
B2: chimeric 203A6C9 (antibody, human IgG1, kappa, V domains shown)
VH: QVQLKQSGPGLVQPSQSLSITCTVSGFSLTRYGVHWVRQSPGKGLEWLGVIWSGGNTDYNAAFISRLNIRKDNSKSQVFFKMNSLKPNDTAIYYCARAAYFGNSFDYWGQGTTLTVSS
VL: DIVMTQSPSSLPVTAGEKVTMSCKSSQSLLNSGNQKNYLTWYQQKPGQPPKLLIYWASTRDSGVPDRFTGSGSGTDFTLTISSVQAEDLAVYYCQNNYIYPLTFGAGTKLELKR
notes: as for B1
B3: chimeric 265E6G2 (antibody, human IgG1, kappa, V domains shown)
VH: QAYLQQSGAELVRSGASVKMSCKASGYTFTSYNMHWVKQTPGQGLEWIGYIYPGNGGTNYNQKFKGKATLTADTSSSTAYMQISSLTSEDSAVYFCARDYYGNSFAYWGQGTLVTVSA
VL: DLVMTQSPSSLTVTAGEKVTMSCKSSQSLLNSGNQKNYLTWYQQKPGQPPKLLIYWASTRESGVPDRFTGSGSGTDFTLTISNIQAEDLAVYYCQNDYSYPLPFGAGTKLELRR
notes: as for B1
B4: chimeric 273C10E5 (antibody, human IgG1, kappa, V domains shown)
VH: QVQLQQSGAELVKPGASVKLSCKASGYTFTSFGINWLRQRPEQGLEWIGWIFPGDGNSKYNENFKGKATLTTDKSSSTAYMQVTRLTSEDSAVYFCARFYYGNSFANWGQGTLVTVSA
VL: DIVMTQSPSSLTVTAGEKVTMSCKSSQSLLNSGNQKNYLTWYQQKPGQPPKLLIYWAATRESGVPDRFAGSGSGTDFTLTISSVQAEDLAVYYCQNDYFYPFTFGAGTKLELKR
notes: as for B1
B5: chimeric 262C7C10 (antibody, human IgG1, kappa, V domains shown)
VH: QAYLQQSGAELVRSGASVKMSCKASGYTFTNYNIHWVKQTPGQGLEWIGYIYPGNGGNYYNQKFKGKATLTADTSSITAYMQISSLTSEDSAVYFCARDYYGNSFAYWGQGTLVTVSA
VL: DIVMTQSPSSLTVTAGEKVTMNCKSSQSLLNSGNQKNYLTWYQQKPGQPPKLLIYWASTRESGVPDRFTGSGSGTDFTLTISSVQAEDLAIYYCQNDYYYPLTFGAGTKLELKR
notes: as for B1
B6: chimeric 253E4F7 (antibody, human IgG1, kappa, V domains shown)
VH: EIQLQQSGPELMKPGASVKMSCKASGYSFTSYYIHWVKQSHGKSLEWIGYIDPFNGGTRYNQKFEGKATLTVDKSSTTAYMHLSSLTSEDSTVYYCASLRFLAYWGQGTLVTVSA
VL: DIVMTQSPSSLTVTAGEKVTMTCKSSQSLLNSGNQKNYLTWYQQKPGQPPKVLISRASTRQSGVPDRFTGSGSGTDFTLTISSVQAEDLAVYYCQNDYSYPLTFGAGTKLELKR
notes: as for B1
B7: chimeric 207F8G5 (antibody, human IgG1, kappa, V domains shown)
VH: QAYLQQSGAELVRSGASVKMSCKASGFTFTSYNIHWVKQTPGQGLEWIGYISPGNGGSNYNLKFKDKATLTSATSSSTAYMQISSLTSEDSAVYFCATGRGFAYWGQGTLVTVSA
VL: DIVMTQSPSSLTVTPGEKVTMSCKSSQSLFNSGNQKNYLIWYQQKPGQPPKLLIYRASTRDSGVPDRFTGSGSGTDFTLTISNVQAEDLAIYYCQNDYSYPLTFGAGTKLELKR
notes: chimeric, human IgG1/kappa constant regions; also called 207F8G5-Chimeric
B8: chimeric 252F1B10 (antibody, human IgG1, kappa, V domains shown)
VH: QAYLQQSGAELVRSGASVKMSCKASGYTFTSHNMHWVKQTPGQGLEWIGYIYPGNGGTNYNQKFKGKATLTADTSSSTAYMQINSLTSEDSAVYFCTRDYYGNSFAYWGQGTLVTVSA
VL: DIVMTQSPSSLTEKAGERVSMSCKSSQSLFNSGNQKNYLTWYQQKPGQPPKLLIYWASTRESGVPDRFTGSGSGTDFTLTISSVQAEDLAVYYCQNDYRYPFTFGAGTKLELKR
notes: as for B1
B9: chimeric 222B6G5 (antibody, human IgG1, kappa, V domains shown)
VH: QTYLQQSGAELVRSGASVKMSCKASGYTFTSYNIHWVKQTPGQGLEWIGYISPGNGGTYYNLKFKDKATLTTATSSSTAYMQISSLTSEDSAVYFCATGRGFAYWGQGTLVTVSA
VL: DIVMTQSPSSLTVTPGEKVTMSCKSSQSLFNSGNQKNYLIWYQQKPGQPPKLLIYRASTRDSGVPDRFTGSGSGTDFTLTISNVQAEDLAVYYCQNDYSYPLTFGAGTKLELKR
notes: as for B1
B10: chimeric 250F4G4 (antibody, human IgG1, kappa, V domains shown)
VH: QAYLQQSGAELVRSGASVKMSCKASGYTFTSHNMHWVKQTPGQGLEWIGYIYPGNGRTNYNQKFKGKATLTADTSSSTAYMQISSLTSEDSAVYFCTRDYYGNSFAYWGQGTLVTVSA
VL: DIVMTQSPSSLTEKVGERVSMSCKSSQSLFNSGNQKNYLTWYQQKPGQPPKLLIYWASTRESGVPDRFTGSGSGTDFTLTISSVQAEDLAVYYCQNDYWYPFTFGAGTKLELKR
notes: as for B1
B11: chimeric 257G7B9 (antibody, human IgG1, kappa, V domains shown)
VH: QAYLQQSGAELVRSGASVKMSCKASGYTFTSHNLHWVKQTPGQGLEWIGYIYPGNGNTNYNQKFKGKATLTADTSSSTAYMQISSLTSEDSAVYFCTRDYYGNSFAYWGQGTLVTVSA
VL: DIVMTQSPSSLTEKAGERVSMSCKSSQSLFNSGNQKNYLTWYQQKPGQPPKLLIYWASTRESGVPDRFTGSGSGTDFTLTISSVQAEDLAVYYCQNNYWFPFTFGAGTKLELKR
notes: as for B1
B12: chimeric 260G9E8 (antibody, human IgG1, kappa, V domains shown)
VH: QADLQQSGAELVRSGASVKMSCKASGYTFASHNMHWVKQTPGQGLEWIGYIYPGNGGTKYNQKFTGKATLTADTSSSTAYMQITSLTSEDSAVYFCARDYYGNSFAYWGQGTLVTVSA
VL: DIVMTQSPSSLTEKAGEKVSMRCKSSQSLLNSGNQKNYLTWYQQKPGQPPKLLIYWASTRESGVPDRFTGSGSGTDFTLTISSVQADDLAVYYCQNDYMFPFTFGAGTKLELKR
notes: as for B1
B13: chimeric 257B1G9 (antibody, human IgG1, kappa, V domains shown)
VH: QAYLQQSGAELVRSGASVKMSCKASGYTFTSHNMHWVKQTPGQGLEWIGYIYPGNGGTNYNQKFKGKATLTADTSSSTAYMQISSLTSEDSAVYFCTRDYYGNSFAYWGQGTLVTVSA
VL: DIVMTQSPSSLTERAGERVSMSCKSSQSLFNSGNQKNYLTWYQQKPGQPPKLLIYWASTRESGVPDRFTGSGSGTDFTLTISSVQAEDLAVYYCQNDYRYPFTFGAGTKLELKR
notes: as for B1
B14: chimeric 252E7C9 (antibody, human IgG1, kappa, V domains shown)
VH: QTYLQQSGAELVRSGASVKMSCRTSGYSFTSHNMHWVKQTPGQGLEWIGYIYPGNGGSYYNQKFKGKAILTADTSSSTAYMQISSLTSEDSAVYFCTRDYYGNSFVYWGQGTLVTVSA
VL: DVVMTQSPSSLTEKTGEKVSMSCKSSQSLLNSGNQKNYLTWYQQKPGQPPKLLIYWASTRESGVPDRFTGSGSGTDFTLTISSLQTEDLAIYYCQNNFRYPFTFGAGTKLELKR
notes: as for B1

How the values were obtained:
[1] = target: human Claudin18.2 (human); experiment: cell-based or functional assay
[2] = target: human Claudin18.2 (human); experiment: cell-based or functional assay; remark: listed apart in the source
[3] = target: T1, human Claudin18.2 (human); experiment: FACS, Claudin18.2-HEK293 cells
T1 construct: also called CLDN18.2
Protocol: (§1) The binding of chimeric antibodies to Claudin18.2 expressed on HEK293 cells was determine by FACS analysis. Briefly, HEK293 cells expressing human Claudin18.2 as prepared in the foregoing Example were harvested and incubated with anti-Claudin18.2 mAbs at 4° C. for 40 min, followed by fluorophore (iFluor 647)-labeled goat […] IgG (H+L) secondary antibodies at 4° C. for 0.5 hour. The samples were then analyzed by flow cytometry.

[4] = target: T1, human Claudin18.2; experiment: FACS, Claudin18.2-HEK293 cells; remark: listed apart in the source
Protocol: as §1
After initial screening of cell binding with transfected supernatants, the binding pattern of chimeric and up to 3 humanized antibodies on Claudin18.2 expressed on HEK293 cells were plotted with antibody in 3× serial dilutions, starting concentration of 45 μg/ml, following the protocol described in Example 3.

Binder	CDC % Relative activity [1]	CDC EC50 [1]	ADCC % Relative activity [2]	ADCC EC50 [2]	EC50 [3]	EC50 [4]	Span [4]
B1	2100%	0.101 µg/mL	399%	0.00886 µg/mL	0.634 nM		
B2	1040%	0.261 µg/mL	66.4%	0.0367 µg/mL	0.551 nM		
B3	487%	0.472 µg/mL	77.8%	0.0321 µg/mL	1.05 nM		
B4	854%	0.269 µg/mL	92.1%	0.0275 µg/mL	1.01 nM		
B5	666%	0.345 µg/mL	105%	0.0237 µg/mL	1.17 nM		
B6	1320%	0.205 µg/mL	138%	0.0225 µg/mL	0.561 nM		
B7	1300%	0.207 µg/mL	114%	0.0214 µg/mL	0.554 nM	0.17 µg/mL	11800
B8	937%	0.288 µg/mL	85.9%	0.0357 µg/mL	0.798 nM		
B9	1320%	0.205 µg/mL	131%	0.0276 µg/mL	0.61 nM		
B10	875%	0.309 µg/mL	109%	0.0281 µg/mL	1.02 nM		
B11	760%	0.302 µg/mL	55.8%	0.0556 µg/mL	0.742 nM		
B12	684%	0.336 µg/mL	104%	0.024 µg/mL	1.05 nM		
B13	642%	0.358 µg/mL	68.2%	0.0454 µg/mL	1.17 nM		
B14	991%	0.272 µg/mL	98.7%	0.0311 µg/mL	0.331 nM		
